The record followed here is patent US20250051454A1 (DUKE UNIVERSITY, published 2025).

The target of test [1] is T1, HLA-E-RL9HIV single chain trimer on transfected 293T cells (human, UniProt P61769 21-119; P13747 22-358).
T1 construct: also called control HLA-E-peptide complex
Description: flow cytometry, SCT-transfected 293T cells, MFI bar chart [E]. Background: A flow cytometer gives signals particle by particle.

Test [2] deals with T2, HLA-E-RL9SIV single chain trimer on transfected 293T cells (human, UniProt P61769 21-119; P13747 22-358).
T2 construct: also called control HLA-E-peptide complex
The description is as above.

Positions count from the first letter of the chain named.

B1: CA173 (antibody, V domains shown)
VH: EVQLVESGGGLVKPGGSLRLSCAASGFTFSSYSMNWVRQAPGEGLEWVSSISSSSTYIYYADSVKGRFTISRDNAKNSLYLQMNSLRAEDTAVYYCARDRPAGSSSLGSGYFDLWGRGTLVTVSS
VL: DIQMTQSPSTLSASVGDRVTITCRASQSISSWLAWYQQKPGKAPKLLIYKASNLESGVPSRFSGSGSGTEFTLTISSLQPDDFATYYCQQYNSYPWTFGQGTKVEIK
Consider B1, for which the binding result in test [1] and in test [2] was “no binding (tested: 2 µg/ml)” throughout.

B2: CA152 (antibody, V domains shown)
VH: QVQLVQSGAEVKKPGSSVKVSCKASGGTFSSYAISWVRQAPGQGLEWMGGIIPIFGTANYAQKFQGRVTITADESTSTAYMELSSLRSEDTAVYYCARGQWSPGGYGMDVWGQGTTVTVSS
VL: not shown
Consider B2, for which the binding result in test [1] and in test [2] was “no binding (tested: 2 µg/ml)” throughout.

B3: CA154 (antibody, V domains shown)
VH: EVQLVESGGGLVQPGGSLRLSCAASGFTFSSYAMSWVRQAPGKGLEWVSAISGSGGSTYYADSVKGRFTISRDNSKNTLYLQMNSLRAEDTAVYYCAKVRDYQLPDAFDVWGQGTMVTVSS
VL: AIRMTQSPSSFSASTGDRVTITCRASQGISSYLAWYQQKPGKAPKLLIYAASTLQSGVPSRFSGSGSGTDFTLTISCLQSEDFATYYCQQYYSYALTFGGGTKVEIK
With B3, the binding result in test [1] and in test [2] was “no binding (tested: 2 µg/ml)” each time.

B4: CA177 (antibody, V domains shown)
VH: QVQLQESGPGLVKPSETLSLTCTVSGGSISSYYWSWIRQPPGKGLEWIGYIYYSGSTNYNPSLKSRVTISVDTSKNQFSLKLSSVTAADTAVYYCASHDYTDHAAGYWGQGTLVTVSS
VL: not shown
Consider B4, for which the binding result in test [1] and in test [2] was “no binding (tested: 2 µg/ml)” in each case.

B5: CA180 (antibody, V domains shown)
VH: QVQLVQSGAEVKKPGASVKVSCKASGYTFTSYGISWVRQAPGQGLEWMGWISAYNGNTNYAQKLQGRVTMTTDTSTSTAYMELRSLRSDDTAVYYCARDLGYSSSWYTSNWFDPWGQGTLVTVSS
VL: QSALTQPASVSGSPGQSITISCTGTSSDVGSYNLVSWYQQHPGKAPKLMIYEGSKRPSGVSNRFSGSKSGNTASLTISGLQAEDEADYYCCSYAGSSTVVFGGGTKLTVL
On to B5, for which the binding result in test [1] and in test [2] was “no binding (tested: 2 µg/ml)” throughout.

B6: CA162 (antibody, V domains shown)
VH: QVQLVESGGGLVKPGGSLRLSCAASGFTFSDYYMSWIRQAPGKGLEWVSYISSSSSYTNYADSVKGRFTISRDNAKNSLYLQMNSLRAEDTAVYYCARGRTMFKNYYDSSGYYGYFDYWGQGTLVTVSS
VL: DIQMTQSPSSVSASVGDRVTITCRASQGISSWLAWYQQKPGKAPKLLIYAASSLQSGVPSRFSGSGSGTDFTLTISSLQPEDFATYYCQQANSPLTFGGGTKVEIK
As for B6, the binding result in test [1] and in test [2] was “no binding (tested: 2 µg/ml)” throughout.

B7: CA150 (antibody, V domains shown)
VH: QVQLVQSGAEVKKPGSSVKVSCKASGGTFSSYAISWVRQAPGQGLEWMGGIIPIFGTANYAQKFQGRVTITADESTSTAYMELSSLRSEDTAVYYCASFPNCSSTSCYYYYYMDVWGKGTTVTVSS
VL: QSALTQPASVSGSPGQSITISCTGTSSDVGGYNYVSWYQQHPGKAPKLMIYDVSNRPSGVSNRFSGSKSGNTASLTISGLQAEDEADYYCSSYTSSSTRDVVFGGGTKLTVL
Turning to B7, the binding result in test [1] and in test [2] was “no binding (tested: 2 µg/ml)” each time.

B8: CA169 (antibody, V domains shown)
VH: EVQLVESGGGLVKPGGSLRLSCAASGFTFSSYSMNWVRQAPGKGLEWVSSISSSSSYIYYADSVKGRFTISRDNAKNSLYLQMNSLRAEDTAVYYCASGVLLEAFDYWGQGTLVTVSS
VL: SYVLTQPPSVSVAPGQTARITCGGNNIGSKSVHWYQQKPGQAPVLVVYDDSDRPSGIPERFSGSNSGNTATLTISRVEAGDEADYYCQVWDSSSDHVVFGGGTKLTVL
Turning to B8, the binding result in test [1] and in test [2] was “no binding (tested: 2 µg/ml)” throughout.

B9: CA151 (antibody, V domains shown)
VH: QVQLQESGPGLVKPSETLSLTCTVSGGSVSSGSYYWSWIRQPPGKGLEWIGYIYYSGSTNYNPSLKSRVTISVDTSKNQFSLKLSSVTAADTAVYYCASFTRMSPYAFDIWGQGTMVTVSS
VL: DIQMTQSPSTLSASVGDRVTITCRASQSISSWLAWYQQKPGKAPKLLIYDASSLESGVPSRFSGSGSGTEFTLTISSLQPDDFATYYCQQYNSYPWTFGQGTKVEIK
Consider B9, for which the binding result in test [1] and in test [2] was “no binding (tested: 2 µg/ml)” each time.

B10: CA175 (antibody, V domains shown)
VH: EVQLVESGGGLVQPGGSLRLSCAASGFTFSTYPMNWVRQAPGKGLEWVSYISSSSSTIYYADCVKGRFTISRDNAKNSLYLQMNSLRDEDTAVYYCARYYIAYGMDVWGQGTTVTVSS
VL: DIQMTQSPSSMSASVGDRVTITCRASQGISNYLAWFQQKPGKAPKRLIYGASSLHRGVPSRFSGSGSGTEFTLTITSLQPEDFATYYCLQHNTYPRTFGQGTKVEIK
Turning to B10, the binding result in test [1] and in test [2] was “no binding (tested: 2 µg/ml)” in each case.

B11: CA156 (antibody, V domains shown)
VH: EVQLVESGGGLVKPGGSLRLSCAASGFTFSSYSMNWVRQAPGKGLEWVSSISSSSSYIYYADSVKGRFTISRDNAKNSLYLQMNSLRAEDTAVYYCARDFSGDFWSGYDYWGQGTLVTVSS
VL: not shown
For B11, the binding result in test [1] and in test [2] was “no binding (tested: 2 µg/ml)” each time.

B12: CA176 (antibody, V domains shown)
VH: QVQLVESGGGVVQPGRSLRLSCAASGFTFSSYGMHWVRQAPGKGLEWVAVISYDGSNKYYADSVKGRFTISRDNSKNTLYLQMNSLRAEDTAVYYCAKDEGSSDFWSGYYASFDYWGQGTLVTVSS
VL: DIQMTQSPISLSASVGDRVTITCRASQDISNYLTWYQQKPGKAPKLLIYAASSLQSGVPSRFSGSGSGTDFTLTISNLQPEDFATYYCQQNYSYPCTFGQGTKVEIK
As to B12, the binding result in test [1] and in test [2] was “no binding (tested: 2 µg/ml)” throughout.

B13: CA157 (antibody, V domains shown)
VH: EVQLVESGGGLVQPGGSLRLSCAASGFTFSSYEMNWVRQAPGKGLEWVSYISSSGSTIYYADSVKGRFTISRDNAKNSLYLQMNSLRAEDTAVYYCARGYCSSTSCPFDYWGQGTLVTVSS
VL: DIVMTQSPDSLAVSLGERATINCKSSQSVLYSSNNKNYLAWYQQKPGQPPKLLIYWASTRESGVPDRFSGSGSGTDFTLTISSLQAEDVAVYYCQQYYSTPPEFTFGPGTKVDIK
B13: the binding result in test [1] and in test [2] was “no binding (tested: 2 µg/ml)” throughout.

B14: CA159 (antibody, V domains shown)
VH: QVQLVQSGAEVKKPGSSVKVSCKASGGTFSSYAISWVRQAPGQGLEWMGGIIPIFGTANYAQKFQGRVTITADESTSTAYMELSSLRSEDTAVYYCARASYYYYYMDVWGKGTTVTVSS
VL: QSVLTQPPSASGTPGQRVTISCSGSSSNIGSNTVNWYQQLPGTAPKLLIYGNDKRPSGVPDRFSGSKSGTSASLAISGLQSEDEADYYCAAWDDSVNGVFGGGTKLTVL
For the molecule B14, the binding result in test [1] and in test [2] was “no binding (tested: 2 µg/ml)” each time.

B15: CA153 (antibody, V domains shown)
VH: EVQLVESGGGLVKPGGSLRLSCAASGFTFSSYSMNWVRQAPGKGLEWVSSISSSSSYIYYADSVKGRFTISRDNAKNSLYLQMNSLRAEDTAVYYCARLTYYYYMDVWGKGTTVTVSS
VL: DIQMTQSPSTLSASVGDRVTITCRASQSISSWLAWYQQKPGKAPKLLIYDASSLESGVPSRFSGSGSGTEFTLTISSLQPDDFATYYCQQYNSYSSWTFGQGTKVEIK
B15: the binding result in test [1] and in test [2] was “no binding (tested: 2 µg/ml)” in each case.

B16: CA158 (antibody, V domains shown)
VH: B8 VH with S98R, G99M, V100Y, L101Q, E103A, F105I
VL: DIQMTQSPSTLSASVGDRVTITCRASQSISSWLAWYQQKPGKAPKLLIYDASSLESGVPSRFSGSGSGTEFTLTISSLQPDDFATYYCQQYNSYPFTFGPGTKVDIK
For B16, the binding result in test [1] and in test [2] was “no binding (tested: 2 µg/ml)” in each case.

B17: CA178 (antibody, V domains shown)
VH: QVQLVQSGAEVKKPGSSVKVSCKASGGTFSSYAISWVRQAPGQGLEWMGGIIPIFGTANYAQKFQGRVTITADESTSTAYMELSSLRSEDTAVYYCARDYGGSYYYEYFQHWGQGTLVTVSS
VL: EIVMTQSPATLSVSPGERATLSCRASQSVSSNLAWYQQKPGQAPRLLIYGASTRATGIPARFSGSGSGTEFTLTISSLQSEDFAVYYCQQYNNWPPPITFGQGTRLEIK
In the case of B17, the binding result in test [1] and in test [2] was “no binding (tested: 2 µg/ml)” in each case.

B18: CA166 (antibody, V domains shown)
VH: EVQLVESGGGLVKPGGSLRLSCAASGFTFSSYSMNWVRQAPGKGLEWVSSISSSSSYIYYADSVKGRFTISRDNAKNSLYLQMNSLRAEDTAVYYCARVMITFGGADYWGQGTLVTVSS
VL: DIQMTQSPSSLSASVGDRVTITCRASQNINTYLNWYQKRPGIAPKLLIYGASSLQSGVPSRFSGSGSGTDFTLTISSLQPEDFATYYCQQYHTSPLTFGGGTPVDIK
On to B18, for which the binding result in test [1] and in test [2] was “no binding (tested: 2 µg/ml)” throughout.

B19: CA170 (antibody, V domains shown)
VH: B18 VH with V99D, M100R, I101D, T102L, F103L, G104D, G105A, A106F, Y108I, L114M
VL: SYVLTQPPSVSVAPGQTARITCGGNNIGSKSVHWYQQKPGQAPVLVVYDDSDRPSGIPERFSGSNSGNTATLTISRVEAGDEADYYCQVWDSSSDHPWVFGGGTKLTVL
Take B19: the binding result in test [1] and in test [2] was “no binding (tested: 2 µg/ml)” each time.

B20: CA168 (antibody, V domains shown)
VH: QVQLVQSGAEVKKPGSSVKVSCKASGGTFSSYAISWVRQAPGQGLEWMGGIIPIFGTANYAQKFQGRVTITADKSTSTAYMELSSLRSEDTAVYYCARALTYYDFPDYGMDVWGQGTTVTVSS
VL: QSALTQPPSASGSPGQSVTISCTGTSSDVGGYNYVSWYQQHPGKVPKLMIYEVTKRPSGVPDRFSGSKSGNTASLTVSGLQAEDEADYYCSSYAGSNNLVFGGGTKLTVL
Turning to B20, the binding result in test [1] and in test [2] was “no binding (tested: 2 µg/ml)” each time.
